Reference: article PMC6555819, “Comprehensive study of nuclear receptor DNA binding provides a revised framework for understanding receptor specificity”

B1: NRC3_wobSeed89_DR3_G18A_o1 (dsDNA)
DNA 1: GCCTATGTAGGTTAAGGAGGTCATTCAGTTTGAAAGGCGATTGACAGCGTAGAATGAAGG
DNA 2: CCTTCATTCTACGCTGTCAATCGCCTTTCAAACTGAATGACCTCCTTAACCTACATAGGC
B2: NRC3_wobSeed69_DR2_T16G_o1 (dsDNA)
DNA 1: GCAGTCAAAGTTCACGAGGTAACGTAAGATTCAGCTGCGATTGACAGCGTAGAATGAAGG
DNA 2: CCTTCATTCTACGCTGTCAATCGCAGCTGAATCTTACGTTACCTCGTGAACTTTGACTGC
B3: NRC3_wobSeed9_DR0_G21T_o1 (dsDNA)
DNA 1: GCATCTCTAGGTAAAGTTCATTGAAAGATCGATAGAGCGATTGACAGCGTAGAATGAAGG
DNA 2: CCTTCATTCTACGCTGTCAATCGCTCTATCGATCTTTCAATGAACTTTACCTAGAGATGC
B4: NRC3_wobSeed61_DR2_C7T_o1 (dsDNA)
DNA 1: GCCGTCTAAGGTCAGCAGGTCAGTGAAAGCGACGTGGCGATTGACAGCGTAGAATGAAGG
DNA 2: CCTTCATTCTACGCTGTCAATCGCCACGTCGCTTTCACTGACCTGCTGACCTTAGACGGC
B5: NRC3_wobSeed61_DR2_G15A_o1 (dsDNA)
DNA 1: GCCGTCCAAGGTCAACAGGTCAGTGAAAGCGACGTGGCGATTGACAGCGTAGAATGAAGG
DNA 2: CCTTCATTCTACGCTGTCAATCGCCACGTCGCTTTCACTGACCTGTTGACCTTGGACGGC
B6: NRC3_wobSeed61_DR2_G23C_o1 (dsDNA)
DNA 1: GCCGTCCAAGGTCAGCAGGTCACTGAAAGCGACGTGGCGATTGACAGCGTAGAATGAAGG
DNA 2: CCTTCATTCTACGCTGTCAATCGCCACGTCGCTTTCAGTGACCTGCTGACCTTGGACGGC
B7: NRC3_wobSeed61_DR2_T12G_o1 (dsDNA)
DNA 1: GCCGTCCAAGGGCAGCAGGTCAGTGAAAGCGACGTGGCGATTGACAGCGTAGAATGAAGG
DNA 2: CCTTCATTCTACGCTGTCAATCGCCACGTCGCTTTCACTGACCTGCTGCCCTTGGACGGC
B8: NRC3_wobSeed141_DR5_G15C_o1 (dsDNA)
DNA 1: GCAGTCAAAGTTCACGACGAGGTAACGTAAAGCACGGCGATTGACAGCGTAGAATGAAGG
DNA 2: CCTTCATTCTACGCTGTCAATCGCCGTGCTTTACGTTACCTCGTCGTGAACTTTGACTGC
B9: NRC3_wobSeed115_DR4_A23C_o1 (dsDNA)
DNA 1: GCACAGACAGGTGAGTGAAGGTCACTCAGCTGGACGGCGATTGACAGCGTAGAATGAAGG
DNA 2: CCTTCATTCTACGCTGTCAATCGCCGTCCAGCTGAGTGACCTTCACTCACCTGTCTGTGC
B10: NRC3_wobSeed123_DR5_C4G_o1 (dsDNA)
DNA 1: GCCGTCGGAGGACAACAGGAGGTCAGAGCTGCCAGAGCGATTGACAGCGTAGAATGAAGG
DNA 2: CCTTCATTCTACGCTGTCAATCGCTCTGGCAGCTCTGACCTCCTGTTGTCCTCCGACGGC
B11: NRC3_wobSeed123_DR5_A15C_o1 (dsDNA)
DNA 1: GCCCTCGGAGGACACCAGGAGGTCAGAGCTGCCAGAGCGATTGACAGCGTAGAATGAAGG
DNA 2: CCTTCATTCTACGCTGTCAATCGCTCTGGCAGCTCTGACCTCCTGGTGTCCTCCGAGGGC
B12: NRC3_wobSeed134_DR5_T8A_o1 (dsDNA)
DNA 1: GCGCTGCAAGGTCAACTGATGGTCAGCTAAAGCTCGGCGATTGACAGCGTAGAATGAAGG
DNA 2: CCTTCATTCTACGCTGTCAATCGCCGAGCTTTAGCTGACCATCAGTTGACCTTGCAGCGC
B13: NRC3_wobSeed49_DR2_A6G_o1 (dsDNA)
DNA 1: GCCAAGCTAGGTCAAGAGGTCAAAGTCCGCTTCCCGGCGATTGACAGCGTAGAATGAAGG
DNA 2: CCTTCATTCTACGCTGTCAATCGCCGGGAAGCGGACTTTGACCTCTTGACCTAGCTTGGC
B14: NRC3_wobSeed13_DR0_C7T_o1 (dsDNA)
DNA 1: GCCGTCTAAGGTCAAGGTCAGTGAAAGAGACTCGAAGCGATTGACAGCGTAGAATGAAGG
DNA 2: CCTTCATTCTACGCTGTCAATCGCTTCGAGTCTCTTTCACTGACCTTGACCTTAGACGGC
B15: NRC3_wobSeed51_DR2_T5C_o1 (dsDNA)
DNA 1: GCCCCCGGAGGACAGAAGGTCAGAGCTGTCCGCTTTGCGATTGACAGCGTAGAATGAAGG
DNA 2: CCTTCATTCTACGCTGTCAATCGCAAAGCGGACAGCTCTGACCTTCTGTCCTCCGGGGGC
B16: NRC3_wobSeed51_DR2_C4G_o1 (dsDNA)
DNA 1: GCCGTCGGAGGACAGAAGGTCAGAGCTGTCCGCTTTGCGATTGACAGCGTAGAATGAAGG
DNA 2: CCTTCATTCTACGCTGTCAATCGCAAAGCGGACAGCTCTGACCTTCTGTCCTCCGACGGC
B17: NRC3_wobSeed133_DR5_T16C_o1 (dsDNA)
DNA 1: GCCGTCCAAGGTCAACGCTAGGTCAGTGAAAGCATTGCGATTGACAGCGTAGAATGAAGG
DNA 2: CCTTCATTCTACGCTGTCAATCGCAATGCTTTCACTGACCTAGCGTTGACCTTGGACGGC
B18: NRC3_wobSeed12_DR0_T8G_o1 (dsDNA)
DNA 1: GCCCGACGGGGGCAAGGTTACCATAACGCACAGCCAGCGATTGACAGCGTAGAATGAAGG
DNA 2: CCTTCATTCTACGCTGTCAATCGCTGGCTGTGCGTTATGGTAACCTTGCCCCCGTCGGGC
B19: NRC3_wobSeed85_DR3_C6G_o1 (dsDNA)
DNA 1: GCCGTGCAAGGTCAGAGAGGTCAGTGAATGCCGAGTGCGATTGACAGCGTAGAATGAAGG
DNA 2: CCTTCATTCTACGCTGTCAATCGCACTCGGCATTCACTGACCTCTCTGACCTTGCACGGC
B20: NRC3_wobSeed117_DR4_A29T_o1 (dsDNA)
DNA 1: GCCGTCAAAGTTCAACTAAGGTAACGTATAGCACGCGCGATTGACAGCGTAGAATGAAGG
DNA 2: CCTTCATTCTACGCTGTCAATCGCGCGTGCTATACGTTACCTTAGTTGAACTTTGACGGC
B21: NRC3_wobSeed117_DR4_G21T_o1 (dsDNA)
DNA 1: GCCGTCAAAGTTCAACTAAGTTAACGTAAAGCACGCGCGATTGACAGCGTAGAATGAAGG
DNA 2: CCTTCATTCTACGCTGTCAATCGCGCGTGCTTTACGTTAACTTAGTTGAACTTTGACGGC
B22: NRC3_wobSeed21_DR0_G17T_o1 (dsDNA)
DNA 1: GCCGTCAAAGTTCAAGTTAACGTAACAGAAAGCAGCGCGATTGACAGCGTAGAATGAAGG
DNA 2: CCTTCATTCTACGCTGTCAATCGCGCTGCTTTCTGTTACGTTAACTTGAACTTTGACGGC
B23: NRC3_wobSeed21_DR0_A19T_o1 (dsDNA)
DNA 1: GCCGTCAAAGTTCAAGGTTACGTAACAGAAAGCAGCGCGATTGACAGCGTAGAATGAAGG
DNA 2: CCTTCATTCTACGCTGTCAATCGCGCTGCTTTCTGTTACGTAACCTTGAACTTTGACGGC
B24: NRC3_wobSeed106_DR4_T28A_o1 (dsDNA)
DNA 1: GCCTCGAAAGGTCGGTTGAGGTGAGTAAACGGATAAGCGATTGACAGCGTAGAATGAAGG
DNA 2: CCTTCATTCTACGCTGTCAATCGCTTATCCGTTTACTCACCTCAACCGACCTTTCGAGGC
B25: NRC3_wobSeed120_DR4_A17G_o1 (dsDNA)
DNA 1: GCCCGAGTAGGTTACGGGGGGGCATTCAGTGCGAATGCGATTGACAGCGTAGAATGAAGG
DNA 2: CCTTCATTCTACGCTGTCAATCGCATTCGCACTGAATGCCCCCCCGTAACCTACTCGGGC
B26: NRC3_wobSeed112_DR4_C22G_o1 (dsDNA)
DNA 1: GCTAGCCTAGGTCAGATCGGGGCAGTATACGCTATAGCGATTGACAGCGTAGAATGAAGG
DNA 2: CCTTCATTCTACGCTGTCAATCGCTATAGCGTATACTGCCCCGATCTGACCTAGGCTAGC
B27: NRC3_wobSeed112_DR4_C23G_o1 (dsDNA)
DNA 1: GCTAGCCTAGGTCAGATCGGGCGAGTATACGCTATAGCGATTGACAGCGTAGAATGAAGG
DNA 2: CCTTCATTCTACGCTGTCAATCGCTATAGCGTATACTCGCCCGATCTGACCTAGGCTAGC
B28: NRC3_wobSeed112_DR4_A27C_o1 (dsDNA)
DNA 1: GCTAGCCTAGGTCAGATCGGGCCAGTCTACGCTATAGCGATTGACAGCGTAGAATGAAGG
DNA 2: CCTTCATTCTACGCTGTCAATCGCTATAGCGTAGACTGGCCCGATCTGACCTAGGCTAGC
B29: NRC3_wobSeed97_DR4_A26C_o1 (dsDNA)
DNA 1: GCCAAACTAGGTCACGAAAGGTCAACGTCGAATGACGCGATTGACAGCGTAGAATGAAGG
DNA 2: CCTTCATTCTACGCTGTCAATCGCGTCATTCGACGTTGACCTTTCGTGACCTAGTTTGGC
B30: NRC3_wobSeed65_DR2_T8A_o1 (dsDNA)
DNA 1: GCATATGAAGGTTATCGGGTCATTCAGTTTGCGCATGCGATTGACAGCGTAGAATGAAGG
DNA 2: CCTTCATTCTACGCTGTCAATCGCATGCGCAAACTGAATGACCCGATAACCTTCATATGC
B31: NRC3_wobSeed73_DR3_A25C_o1 (dsDNA)
DNA 1: GCCAAACTAGGTCACAGAGGTCAACGTCCGTGCGTAGCGATTGACAGCGTAGAATGAAGG
DNA 2: CCTTCATTCTACGCTGTCAATCGCTACGCACGGACGTTGACCTCTGTGACCTAGTTTGGC
B32: NRC3_wobSeed62_DR2_T20G_o1 (dsDNA)
DNA 1: GCTCTGCTAGGTCAGTTGGGCAGCTAACGAGCTGCCGCGATTGACAGCGTAGAATGAAGG
DNA 2: CCTTCATTCTACGCTGTCAATCGCGGCAGCTCGTTAGCTGCCCAACTGACCTAGCAGAGC
B33: NRC3_wobSeed109_DR4_C6T_o1 (dsDNA)
DNA 1: GCCGTTCAAGGTCATAGGAGGTCAGTGAAGACAGATGCGATTGACAGCGTAGAATGAAGG
DNA 2: CCTTCATTCTACGCTGTCAATCGCATCTGTCTTCACTGACCTCCTATGACCTTGAACGGC

Molecular target: RARb:RXRa (Homo sapiens, UniProt P10826;P19793 full;full)
Test: no ligand; PBM; 270 nM : 90 nM RXRa; PBS pH 7.4, 2% milk, 0.02% Triton X-100, 1 mM DTT, BSA, 0.4 mg/ml salmon testes DNA
Settings: tags: His kept;His cleaved; copies: 1;1; label: surface-attached array probe
Procedure, shortened: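 Probes were double-stranded and carried 34-nt variable regions with direct-repeat seeds, single-nucleotide variants, half-site ablations and random human genomic background sequences, printed on custom Agilent 4×180K protein-binding microarrays. Arrays were incubated 1 h with ligand-free nuclear receptor dimers in PBS pH 7.4, 2% milk, 0.02% Triton X-100, 1 mM DTT, 0.2 mg/mL BSA and 0.4 mg/ml salmon testes DNA. Antibodies against each partner (one per run) detected binding, and scanned fluorescence was regression-normalized. Binding z-scores use the random background probes as reference.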

RARb:RXRa, sequence (P10826 whole entry, chain 1 of 2): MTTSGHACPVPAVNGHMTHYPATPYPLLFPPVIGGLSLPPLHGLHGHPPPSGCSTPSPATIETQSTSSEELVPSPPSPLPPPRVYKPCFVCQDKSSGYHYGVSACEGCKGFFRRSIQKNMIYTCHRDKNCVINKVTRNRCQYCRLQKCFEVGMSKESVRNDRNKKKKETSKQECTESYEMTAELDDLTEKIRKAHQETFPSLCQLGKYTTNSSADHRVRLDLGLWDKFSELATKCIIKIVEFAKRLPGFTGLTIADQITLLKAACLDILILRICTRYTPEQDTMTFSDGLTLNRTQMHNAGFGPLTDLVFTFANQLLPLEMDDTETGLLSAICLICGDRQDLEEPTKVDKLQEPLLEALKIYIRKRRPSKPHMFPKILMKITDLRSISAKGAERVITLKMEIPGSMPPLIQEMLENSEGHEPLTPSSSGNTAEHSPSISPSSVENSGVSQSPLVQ
RARb:RXRa, sequence (P19793 whole entry, chain 2 of 2): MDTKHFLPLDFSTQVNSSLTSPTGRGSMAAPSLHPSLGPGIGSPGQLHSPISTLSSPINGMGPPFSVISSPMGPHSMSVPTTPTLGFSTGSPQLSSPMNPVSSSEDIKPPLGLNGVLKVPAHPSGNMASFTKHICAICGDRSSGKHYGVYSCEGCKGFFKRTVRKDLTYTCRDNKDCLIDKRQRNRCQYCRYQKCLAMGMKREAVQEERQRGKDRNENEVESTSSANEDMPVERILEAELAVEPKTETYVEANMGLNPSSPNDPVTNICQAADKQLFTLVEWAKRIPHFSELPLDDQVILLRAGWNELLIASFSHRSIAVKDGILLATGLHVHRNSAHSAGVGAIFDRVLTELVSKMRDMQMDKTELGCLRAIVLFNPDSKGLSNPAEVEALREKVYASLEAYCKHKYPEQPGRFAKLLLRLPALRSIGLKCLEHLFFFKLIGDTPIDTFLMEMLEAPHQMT

| Binder | binding signal |
| --- | --- |
| B1 | 3.12 PBM z-score against 500 random probes |
| B2 | 5.54 PBM z-score against 500 random probes |
| B3 | 3.11 PBM z-score against 500 random probes |
| B4 | 5.58 PBM z-score against 500 random probes |
| B5 | 5.56 PBM z-score against 500 random probes |
| B6 | 5.58 PBM z-score against 500 random probes |
| B7 | 3.09 PBM z-score against 500 random probes |
| B8 | 5.43 PBM z-score against 500 random probes |
| B9 | 3.12 PBM z-score against 500 random probes |
| B10 | 3.11 PBM z-score against 500 random probes |
| B11 | 3.1 PBM z-score against 500 random probes |
| B12 | 5.55 PBM z-score against 500 random probes |
| B13 | 5.77 PBM z-score against 500 random probes |
| B14 | 6 PBM z-score against 500 random probes |
| B15 | 3.13 PBM z-score against 500 random probes |
| B16 | 3.1 PBM z-score against 500 random probes |
| B17 | 5.63 PBM z-score against 500 random probes |

| Binder | binding signal |
| --- | --- |
| B18 | 3.13 PBM z-score against 500 random probes |
| B19 | 5.58 PBM z-score against 500 random probes |
| B20 | 5.55 PBM z-score against 500 random probes |
| B21 | 5.53 PBM z-score against 500 random probes |
| B22 | 5.46 PBM z-score against 500 random probes |
| B23 | 5.43 PBM z-score against 500 random probes |
| B24 | 3.1 PBM z-score against 500 random probes |
| B25 | 3.09 PBM z-score against 500 random probes |
| B26 | 3.1 PBM z-score against 500 random probes |
| B27 | 3.08 PBM z-score against 500 random probes |
| B28 | 3.08 PBM z-score against 500 random probes |
| B29 | 6.08 PBM z-score against 500 random probes |
| B30 | 3.08 PBM z-score against 500 random probes |
| B31 | 5.59 PBM z-score against 500 random probes |
| B32 | 3.09 PBM z-score against 500 random probes |
| B33 | 5.82 PBM z-score against 500 random probes |
